The text below walks through data of the supplement of paper PMC5998384.

The test system of series [1] is HeLa Kyoto. In words: solubility in G1/S (NP-40 vs SDS abundance) (log2 ratio); higher = more soluble. The note with it: cell cycle stage: G1/S.
Series [2] concerns HeLa Kyoto. In words: solubility change mitosis vs G1/S (difference of NP-40 vs SDS log2 ratios) (log2 ratio difference); higher = more soluble in mitosis.
Series [3] concerns HeLa Kyoto. In words: thermal stability score vs G1/S (z-score of summed log2 fold changes over temperatures); higher = more thermally stable than in G1/S.
Where [4] appears, read: cell cycle stage: early G1 (4.5 h after nocodazole release).
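For solubility change mitosis vs G1/S (difference of NP-40 vs SDS log2 ratios) in this document: synchronized HeLa Kyoto cells (double thymidine block for G1/S, nocodazole release for mitosis), protein amounts in NP-40 versus SDS lysates quantified by mass spectrometry, three biological replicates.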
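For solubility in G1/S (NP-40 vs SDS abundance) in this document: HeLa Kyoto cells arrested at G1/S by double thymidine block, proteins quantified by TMT10plex mass spectrometry in mild NP-40 versus SDS extracts, three biological replicates.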
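For thermal stability score vs G1/S (z-score of summed log2 fold changes over temperatures) in this document: synchronized HeLa Kyoto cells, proteins quantified by TMT10plex mass spectrometry, three biological replicates, mitosis taken 0.5 h after nocodazole release, G1/S directly after double thymidine block.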

Sequence of DGKA (chain, as listed by the source): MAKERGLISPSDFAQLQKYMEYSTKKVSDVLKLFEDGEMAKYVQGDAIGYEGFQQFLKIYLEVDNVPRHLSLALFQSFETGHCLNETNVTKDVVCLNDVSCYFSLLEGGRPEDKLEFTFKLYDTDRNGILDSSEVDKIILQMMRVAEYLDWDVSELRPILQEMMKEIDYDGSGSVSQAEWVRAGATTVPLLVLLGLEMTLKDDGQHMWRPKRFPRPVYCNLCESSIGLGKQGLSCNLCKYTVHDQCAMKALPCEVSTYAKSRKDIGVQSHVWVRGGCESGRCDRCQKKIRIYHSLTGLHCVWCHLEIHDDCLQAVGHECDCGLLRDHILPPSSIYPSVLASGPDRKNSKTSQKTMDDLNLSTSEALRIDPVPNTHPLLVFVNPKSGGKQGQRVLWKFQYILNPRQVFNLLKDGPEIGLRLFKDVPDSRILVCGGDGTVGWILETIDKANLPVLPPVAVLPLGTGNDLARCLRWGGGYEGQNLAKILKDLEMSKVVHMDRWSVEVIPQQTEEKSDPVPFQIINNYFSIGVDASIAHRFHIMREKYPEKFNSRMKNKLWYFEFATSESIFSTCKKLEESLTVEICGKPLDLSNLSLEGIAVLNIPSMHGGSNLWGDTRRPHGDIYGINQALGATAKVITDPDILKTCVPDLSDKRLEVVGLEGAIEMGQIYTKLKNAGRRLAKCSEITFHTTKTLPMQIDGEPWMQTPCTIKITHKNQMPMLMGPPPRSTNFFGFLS

For “MQSKVTGNMPTQSLLMYMDGPEVIGSSLGSPMEMEDALSMKGTAVVPFRATQEKNVIQIEGYMPLDCMFCSQTFTHSEDLNKHVLMQHRPTLCEPAVLRVEAEYLSPLDKSQVRTEPPKEKNCKENEFSCEVCGQTFRVAFDVEIHMRTHKDSFTYGCNMCGRRFKEPWFLKNHMRTHNGKSGARSKLQQGLESSPATINEVVQVHAAESISSPYKICMVCGFLFPNKESLIEHRKVHTKKTAFGTSSAQTDSPQGGMPSSREDFLQLFNLRPKSHPETGKKPVRCIPQLDPFTTFQAWQLATKGKVAICQEVKESGQEGSTDNDDSSSEKELGETNKGSCAGLSQEKEKCKHSHGEAPSVDADPKLPSSKEKPTHCSECGKAFRTYHQLVLHSRVHKKDRRAGAESPTMSVDGRQPGTCSPDLAAPLDENGAVDRGEGGSEDGSEDGLPEGIHLDKNDDGGKIKHLTSSRECSYCGKFFRSNYYLNIHLRTHTGEKPYKCEFCEYAAAQKTSLRYHLERHHKEKQTDVAAEVKNDGKNQDTEDALLTADSAQTKNLKRFFDGAKDVTGSPPAKQLKEMPSVFQNVLGSAVLSPAHKDTQDFHKNAADDSADKVNKNPTPAYLDLLKKRSAVETQANNLICRTKADVTPPPDGSTTHNLEVSPKEKQTETAADCRYRPSVDCHEKPLNLSVGALHNCPAISLSKSLIPSITCPFCTFKTFYPEVLMMHQRLEHKYNPDVHKNCRNKSLLRSRRTGCPPALLGKDVPPLSSFCKPKPKSAFPAQSKSLPSAKGKQSPPGPGKAPLTSGIDSSTLAPSNLKSHRPQQNVGVQGAATRQQQSEMFPKTSVSPAPDKTKRPETKLKPLPVAPSQPTLGSSNINGSIDYPAKNDSPWAPPGRDYFCNRSASNTAAEFGEPLPKRLKSSVVALDVDQPGANYRRGYDLPKYHMVRGITSLLPQDCVYPSQALPPKPRFLSSSEVDSPNVLTVQKPYGGSGPLYTCVPAGSPASSSTLEGKRPVSYQHLSNSMAQKRNYENFIGNAHYRPNDKKT [ZNF217]”, the “solubility in G1/S (log2)” value with HeLa Kyoto [1] was -0.201. In addition, the “solubility change mitosis (log2)” value in the series with HeLa Kyoto [2] was determined as 0.0502. The thermal stability score in the series with HeLa Kyoto [3] (setting [4]) is -1.13; in the series on HeLa Kyoto [3] (cell cycle stage: mitosis) it was -0.808.
Taken in the same sequence, the figures for DGKA were -0.0832, -0.157, 0.0904 and 0.484.
For “MAGAENWPGQQLELDEDEASCCRWGAQHAGARELAALYSPGKRLQEWCSVILCFSLIAHNLVHLLLLARWEDTPLVILGVVAGALIADFLSGLVHWGADTWGSVELPIVGKAFIRPFREHHIDPTAITRHDFIETNGDNCLVTLLPLLNMAYKFRTHSPEALEQLYPWECFVFCLIIFGTFTNQIHKWSHTYFGLPRWVTLLQDWHVILPRKHHRIHHVSPHETYFCITTGWLNYPLEKIGFWRRLEDLIQGLTGEKPRADDMKWAQKIK [TMEM189]”, in that order: -0.215, 0.0319, -3.23 and -3.53.
On to VKORC1, for which the “solubility in G1/S (log2)” value with HeLa Kyoto [1] is -0.134. Also, the “solubility change mitosis (log2)” value with HeLa Kyoto [2] worked out at 0.136. In addition, the thermal stability score is -0.761 with HeLa Kyoto [3] (setting [4]) and -1.55 with HeLa Kyoto [3] (cell cycle stage: mitosis).
For “MAVEDEGLRVFQSVKIKIGEAKNLPSYPGPSKMRDCYCTVNLDQEEVFRTKIVEKSLCPFYGEDFYCEIPRSFRHLSFYIFDRDVFRRDSIIGKVAIQKEDLQKYHNRDTWFQLQHVDADSEVQGKVHLELRLSEVITDTGVVCHKLATRIVECQGLPIVNGQCDPYATVTLAGPFRSEAKKTKVKRKTNNPQFDEVFYFEVTRPCSYSKKSHFDFEEEDVDKLEIRVDLWNASNLKFGDEFLGELRIPLKVLRQSSSYEAWYFLQPRDNGSKSLKPDDLGSLRLNVVYTEDHVFSSDYYSPLRDLLLKSADVEPVSASAAHILGEVCREKQEAAVPLVRLFLHYGRVVPFISAIASAEVKRTQDPNTIFRGNSLASKCIDETMKLAGMHYLHVTLKPAIEEICQSHKPCEIDPVKLKDGENLENNMENLRQYVDRVFHAITESGVSCPTVMCDIFFSLREAAAKRFQDDPDVRYTAVSSFIFLRFFAPAILSPNLFQLTPHHTDPQTSRTLTLISKTVQTLGSLSKSKSASFKESYMATFYEFFNEQKYADAVKNFLDLISSSGRRDPKSVEQPIVLKEGFMIKRAQGRKRFGMKNFKKRWFRLTNHEFTYHKSKGDQPLYSIPIENILAVEKLEEESFKMKNMFQVIQPERALYIQANNCVEAKDWIDILTKVSQCNQKRLTVYHPSAYLSGHWLCCRAPSDSAPGCSPCTGGLPANIQLDIDGDRETERIYSLFNLYMSKLEKMQEACGSKSVYDGPEQEEYSTFVIDDPQETYKTLKQVIAGVGALEQEHAQYKRDKFKKTKYGSQEHPIGDKSFQNYIRQQSETSTHSI [RASA3]”, in that order: -0.118, -0.19, 0.315 and 0.353.
On to ESPL1, for which the “solubility in G1/S (log2)” value in the series on HeLa Kyoto [1] was -0.00542. For the same substance, the “solubility change mitosis (log2)” value with HeLa Kyoto [2] is -0.204. Moreover, the figures for the thermal stability score with HeLa Kyoto [3] (setting [4]) and in the series on HeLa Kyoto [3] (cell cycle stage: mitosis) were 0.555 and 2.16, respectively.
Take “MTGLYELVWRVLHALLCLHRTLTSWLRVRFGTWNWIWRRCCRAASAAVLAPLGFTLRKPPAVGRNRRHHRHPRGGSCLAAAHHRMRWRADGRSLEKLPVHMGLVITEVEQEPSFSDIASLVVWCMAVGISYISVYDHQGIFKRNNSRLMDEILKQQQELLGLDCSKYSPEFANSNDKDDQVLNCHLAVKVLSPEDGKADIVRAAQDFCQLVAQKQKRPTDLDVDTLASLLSSNGCPDPDLVLKFGPVDSTLGFLPWHIRLTEIVSLPSHLNISYEDFFSALRQYAACEQRLGK [NUS1]”: the “solubility in G1/S (log2)” value with HeLa Kyoto [1] amounted to 0.00319. Also, the “solubility change mitosis (log2)” value in the series on HeLa Kyoto [2] is 0.162. The thermal stability score is -0.859 in the series on HeLa Kyoto [3] (setting [4]) and 0.124 with HeLa Kyoto [3] (cell cycle stage: mitosis).
For “MAAVDSDVESLPRGGFRCCLCHVTTANRPSLDAHLGGRKHRHLVELRAARKAQGLRSVFVSGFPRDVDSAQLSEYFLAFGPVASVVMDKDKGVFAIVEMGDVGAREAVLSQSQHSLGGHRLRVRPREQKEFQSPASKSPKGAAPDSHQLAKALAEAADVGAQMIKLVGLRELSEAERQLRSLVVALMQEVFTEFFPGCVVHPFGSSINSFDVHGCDLDLFLDLGDLEEPQPVPKAPESPSLDSALASPLDPQALACTPASPPDSQPPASPQDSEALDFETPSSSLAPQTPDSALASETLASPQSLPPASPLLEDREEGDLGKASELAETPKEEKAEGAAMLELVGSILRGCVPGVYRVQTVPSARRPVVKFCHRPSGLHGDVSLSNRLALHNSRFLSLCSELDGRVRPLVYTLRCWAQGRGLSGSGPLLSNYALTLLVIYFLQTRDPPVLPTVSQLTQKAGEGEQVEVDGWDCSFPRDASRLEPSINVEPLSSLLAQFFSCVSCWDLRGSLLSLREGQALPVAGGLPSNLWEGLRLGPLNLQDPFDLSHNVAANVTSRVAGRLQNCCRAAANYCRSLQYQRRSSRGRDWGLLPLLQPSSPSSLLSATPIPLPLAPFTQLTAALVQVFREALGCHIEQATKRTRSEGGGTGESSQGGTSKRLKVDGQKNCCEEGKEEQQGCAGDGGEDRVEEMVIEVGEMVQDWAMQSPGQPGDLPLTTGKHGAPGEEGQPSHAALAERGPKGHEAAQEWSQGEAGKGASLPSSASWRCALWHRVWQGRRRARRRLQQQTKEGAGGGAGTRAGWLATEAQVTQELKGLSGGEERPETEPLLSFVASVSPADRMLTVTPLQDPQGLFPDLHHFLQVFLPQAIRHLK [TUT1]”, in that order: -0.00805, 0.00387, 0.3 and 1.52.
Taken in the same sequence, the figures for “MAASGVEKSSKKKTEKKLAAREEAKLLAGFMGVMNNMRKQKTLCDVILMVQERKIPAHRVVLAAASHFFNLMFTTNMLESKSFEVELKDAEPDIIEQLVEFAYTARISVNSNNVQSLLDAANQYQIEPVKKMCVDFLKEQVDASNCLGISVLAECLDCPELKATADDFIHQHFTEVYKTDEFLQLDVKRVTHLLNQDTLTVRAEDQVYDAAVRWLKYDEPNRQPFMVDILAKVRFPLISKNFLSKTVQAEPLIQDNPECLKMVISGMRYHLLSPEDREELVDGTRPRRKKHDYRIALFGGSQPQSCRYFNPKDYSWTDIRCPFEKRRDAACVFWDNVVYILGGSQLFPIKRMDCYNVVKDSWYSKLGPPTPRDSLAACAAEGKIYTSGGSEVGNSALYLFECYDTRTESWHTKPSMLTQRCSHGMVEANGLIYVCGGSLGNNVSGRVLNSCEVYDPATETWTELCPMIEARKNHGLVFVKDKIFAVGGQNGLGGLDNVEYYDIKLNEWKMVSPMPWKGVTVKCAAVGSIVYVLAGFQGVGRLGHILEYNTETDKWVANSKVRAFPVTSCLICVVDTCGANEETLET [KLHL7]” were -0.622, 0.322, 0.201 and -0.116.
As for “MAATAVAAAVAGTESAQGPPGPAASLELWLNKATDPSMSEQDWSAIQNFCEQVNTDPNGPTHAPWLLAHKIQSPQEKEALYALTVLEMCMNHCGEKFHSEVAKFRFLNELIKVLSPKYLGSWATGKVKGRVIEILFSWTVWFPEDIKIRDAYQMLKKQGIIKQDPKLPVDKILPPPSPWPKSSIFDADEEKSKLLTRLLKSNHPEDLQAANRLIKNLVKEEQEKSEKVSKRVSAVEEVRSHVKVLQEMLSMYRRPGQAPPDQEALQVVYERCEKLRPTLFRLASDTTDDDDALAEILQANDLLTQGVLLYKQVMEGRVTFGNRVTSSLGDIPVSRVFQNPAGCMKTCPLIDLEVDNGPAQMGTVVPSLLHQDLAALGISDAPVTGMVSGQNCCEEKRNPSSSTLPGGGVQNPSADRNLLDLLSAQPAPCPLNYVSQKSVPKEVPPGTKSSPGWSWEAGPLAPSPSSQNTPLAQVFVPLESVKPSSLPPLIVYDRNGFRILLHFSQTGAPGHPEVQVLLLTMMSTAPQPVWDIMFQVAVPKSMRVKLQPASSSKLPAFSPLMPPAVISQMLLLDNPHKEPIRLRYKLTFNQGGQPFSEVGEVKDFPDLAVLGAA [GGA2]”, in the series on HeLa Kyoto [1], the “solubility in G1/S (log2)” value came out at 0.448. Also, the “solubility change mitosis (log2)” value in the series on HeLa Kyoto [2] was -0.32. The values for the thermal stability score in the series on HeLa Kyoto [3] (setting [4]) and in the series with HeLa Kyoto [3] (cell cycle stage: mitosis) were 0.693 and 1.05, respectively.
Regarding “MQRAAALVRRGCGPRTPSSWGRSQSSAAAEASAVLKVRPERSRRERILTLESMNPQVKAVEYAVRGPIVLKAGEIELELQRGIKKPFTEVIRANIGDAQAMGQQPITFLRQVMALCTYPNLLDSPSFPEDAKKRARRILQACGGNSLGSYSASQGVNCIREDVAAYITRRDGGVPADPDNIYLTTGASDGISTILKILVSGGGKSRTGVMIPIPQYPLYSAVISELDAIQVNYYLDEENCWALNVNELRRAVQEAKDHCDPKVLCIINPGNPTGQVQSRKCIEDVIHFAWEEKLFLLADEVYQDNVYSPDCRFHSFKKVLYEMGPEYSSNVELASFHSTSKGYMGECGYRGGYMEVINLHPEIKGQLVKLLSVRLCPPVSGQAAMDIVVNPPVAGEESFEQFSREKESVLGNLAKKAKLTEDLFNQVPGIHCNPLQGAMYAFPRIFIPAKAVEAAQAHQMAPDMFYCMKLLEETGICVVPGSGFGQREGTYHFRMTILPPVEKLKTVLQKVKDFHINFLEKYA [GPT2]”, the “solubility in G1/S (log2)” value with HeLa Kyoto [1] was 0.0799. Besides, in the series with HeLa Kyoto [2], the “solubility change mitosis (log2)” value was 0.017. Also, the thermal stability score in the series on HeLa Kyoto [3] (setting [4]) is -0.2; with HeLa Kyoto [3] (cell cycle stage: mitosis) it was -0.215.
SACS: the “solubility in G1/S (log2)” value in the series with HeLa Kyoto [1] was -0.294. In the series on HeLa Kyoto [2], the “solubility change mitosis (log2)” value is -0.045. Moreover, the thermal stability score with HeLa Kyoto [3] (setting [4]) is -0.0387; with HeLa Kyoto [3] (cell cycle stage: mitosis) it was -0.338.
For “MSFNLQSSKKLFIFLGKSLFSLLEAMIFALLPKPRKNVAGEIVLITGAGSGLGRLLALQFARLGSVLVLWDINKEGNEETCKMAREAGATRVHAYTCDCSQKEGVYRVADQVKKEVGDVSILINNAGIVTGKKFLDCPDELMEKSFDVNFKAHLWTYKAFLPAMIANDHGHLVCISSSAGLSGVNGLADYCASKFAAFGFAESVFVETFVQKQKGIKTTIVCPFFIKTGMFEGCTTGCPSLLPILEPKYAVEKIVEAILQEKMYLYMPKLLYFMMFLKSFLPLKTGLLIADYLGILHAMDGFVDQKKKL [SDR16C5]”, in that order: -0.478, -0.0428, 0.864 and -0.987.
